Values quoted from earlier work, collected in paper PMC6522352.

Target: IL-9 (Mus musculus) (UniProt P15247)
Sequence of UniProt P15247 (P15247 19-144): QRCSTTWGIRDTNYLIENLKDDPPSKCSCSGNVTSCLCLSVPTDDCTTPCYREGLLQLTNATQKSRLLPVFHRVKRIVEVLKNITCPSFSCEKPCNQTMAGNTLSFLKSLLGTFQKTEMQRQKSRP

Kd: 0.1 nM
Substance: IL-9 receptor alpha (from UniProt Q01114)
